B1: FAM98B (parent)
chain: QLDKNSEVYQEVQAMFDTLGIPKS
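Also: lentivirally expressed fusions sorted by FACS into six bins by GFP to DsRed ratio, PSI derived from sequencing read proportions per bin multiplied by bin number.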

Variants of: B1
Experiment: protein stability index of a GFP-peptide fusion (GPS, HEK-293T) (PSI 1-6); higher = more stable
Details: c terminus: a fixed tail appended
In the case of QLDKNSEVYQEVQAMFDTLGWPKS [I21W], the protein stability index is reported as 3.6. In the case of QLDKNSEVYQEVQAMFDTLGYPKS [I21Y], the protein stability index is reported as 3. Variant QLDKNSEVYQEVQAMFDTLGIPFS [K23F] has a protein stability index of 2.59. QLDKNSEVYQEVQAMFDTLGIPYS [K23Y] showed a protein stability index of 2.71. With QLDKNSEVYQEVQAMFDTLGIPPS [K23P] the protein stability index was 3.47. QLDKNSEVYQEVQAMFDTLGIPDS [K23D] showed a protein stability index of 3.82. QLDKNSEVYQEVQAMFDTLGIPAS [K23A] showed a protein stability index of 3.26. With QLDKNSEVYQEVQAMFDTLGIPCS [K23C] the protein stability index was 3.06. QLDKNSEVYQEVQAMFDTLGIPRS [K23R] gave a protein stability index of 3.38. For QLDKNSEVYQEVQAMFDTLGIPGS [K23G], the protein stability index was 3.17. QLDKNSEVYQEVQAMFDTLGIPVS [K23V] gave a protein stability index of 3.4. QLDKNSEVYQEVQAMFDTLGIPWS [K23W] gave a protein stability index of 2.3. QLDKNSEVYQEVQAMFDTLGIPTS [K23T] gave a protein stability index of 3.24. QLDKNSEVYQEVQAMFDTLGIPQS [K23Q] gave a protein stability index of 3.41. QLDKNSEVYQEVQAMFDTLGIPNS [K23N] gave a protein stability index of 3.54. QLDKNSEVYQEVQAMFDTLGIPHS [K23H] gave a protein stability index of 3.33. QLDKNSEVYQEVQAMFDTLGIPLS [K23L] gave a protein stability index of 2.46. QLDKNSEVYQEVQAMFDTLGIPES [K23E] gave a protein stability index of 4.21. For QLDKNSEVYQEVQAMFDTLGIPIS [K23I], the protein stability index was 2.15. With QLDKNSEVYQEVQAMFDTLGIPSS [K23S] the protein stability index was 3.24. With QLDKNSEVYQEVQAMFDTLGIPMS [K23M] the protein stability index was 3.38. Work on QLDKNSEVYQEVQAMFDTLGIPKN [S24N] yielded a protein stability index of 3.56. With QLDKNSEVYQEVQAMFDTLGIPKV [S24V] the protein stability index was 2.61. Work on QLDKNSEVYQEVQAMFDTLGIPKG [S24G] yielded a protein stability index of 3.61. QLDKNSEVYQEVQAMFDTLGIPKT [S24T] gave a protein stability index of 2.48. Work on QLDKNSEVYQEVQAMFDTLGIPKM [S24M] yielded a protein stability index of 2.69. With QLDKNSEVYQEVQAMFDTLGIPKQ [S24Q] the protein stability index was 3.25. In the case of QLDKNSEVYQEVQAMFDTLGIPKL [S24L], the protein stability index is reported as 2.46. For QLDKNSEVYQEVQAMFDTLGIPKE [S24E], the protein stability index was 3.47. Work on QLDKNSEVYQEVQAMFDTLGIPKI [S24I] yielded a protein stability index of 2.67. Variant QLDKNSEVYQEVQAMFDTLGIPKK [S24K] has a protein stability index of 2.96. In the case of QLDKNSEVYQEVQAMFDTLGIPKR [S24R], the protein stability index is reported as 2.5. QLDKNSEVYQEVQAMFDTLGIPKA [S24A] gave a protein stability index of 2.88. QLDKNSEVYQEVQAMFDTLGIPKD [S24D] gave a protein stability index of 4.28. In the case of QLDKNSEVYQEVQAMFDTLGIPKC [S24C], the protein stability index is reported as 2.44. Variant QLDKNSEVYQEVQAMFDTLGIPKP [S24P] has a protein stability index of 2.79. With QLDKNSEVYQEVQAMFDTLGIPKW [S24W] the protein stability index was 2.99. For QLDKNSEVYQEVQAMFDTLGIPKH [S24H], the protein stability index was 2.99. For QLDKNSEVYQEVQAMFDTLGIPKY [S24Y], the protein stability index was 2.36. With QLDKNSEVYQEVQAMFDTLGIPKF [S24F] the protein stability index was 3. QLDKNSEVYQEVQAMFDTLGITKS [P22T] showed a protein stability index of 3.48. For QLDKNSEVYQEVQAMFDTLGIYKS [P22Y], the protein stability index was 2.54. In the case of QLDKNSEVYQEVQAMFDTLGIWKS [P22W], the protein stability index is reported as 2.98. QLDKNSEVYQEVQAMFDTLGIEKS [P22E] gave a protein stability index of 4.15. QLDKNSEVYQEVQAMFDTLGIRKS [P22R] showed a protein stability index of 4.78. Work on QLDKNSEVYQEVQAMFDTLGISKS [P22S] yielded a protein stability index of 4.04. With QLDKNSEVYQEVQAMFDTLGIFKS [P22F] the protein stability index was 2.12. With QLDKNSEVYQEVQAMFDTLGICKS [P22C] the protein stability index was 3.11. Variant QLDKNSEVYQEVQAMFDTLGILKS [P22L] has a protein stability index of 2.03. In the case of QLDKNSEVYQEVQAMFDTLGIDKS [P22D], the protein stability index is reported as 4.05. For QLDKNSEVYQEVQAMFDTLGIVKS [P22V], the protein stability index was 3.16. QLDKNSEVYQEVQAMFDTLGIMKS [P22M] gave a protein stability index of 3.37. With QLDKNSEVYQEVQAMFDTLGIGKS [P22G] the protein stability index was 2.53. Work on QLDKNSEVYQEVQAMFDTLGIAKS [P22A] yielded a protein stability index of 3.48. For QLDKNSEVYQEVQAMFDTLGIQKS [P22Q], the protein stability index was 2.62. In the case of QLDKNSEVYQEVQAMFDTLGINKS [P22N], the protein stability index is reported as 3.38. In the case of QLDKNSEVYQEVQAMFDTLGIHKS [P22H], the protein stability index is reported as 2.87. In the case of QLDKNSEVYQEVQAMFDTLGIKKS [P22K], the protein stability index is reported as 3.38. QLDKNSEVYQEVQAMFDTLGIIKS [P22I] showed a protein stability index of 2.78.

Reference: the supplement of paper PMC10567573
